According to patent US20200332017A1 (SALUBRIS CHENGDU BIOTECH, published 2020):
Read-outs that look alike come from different tables or passages of the source.

B1: mouse anti-CD40 monoclonal antibody C1C1 (antibody, V domains shown)
VH: EVKLVESGGGLVKPGASLKLSCAASGFTFSNYGMSWVRQNSDKRLEWVASISSGGDDTYYPDNVKGRCTISRENAKNTLYLEMSSLKTEDTALYYCTRAGGKAMDYWGQGTSVTVST
VL: DIVLTQSPATLSVIPGNSVSLSCRASQSIRDNLHWYQQKSHESPRLLINYASQSISGIPSRFSGSGSGTDFTLTINSVETEDFGIYFCQQFNSWPLTFGGGTKLELK
notes: those are used here for the chimeric antibody only; also called Mouse C1C1; mouse C1C1
B2: chimeric antibody C1C1 (antibody, human IgG1, kappa, V domains shown)
VH: B1 VH
VL: DIVLTQSPATLSVIPGNSVSLSCRASQSIRDNLHWYQQKSHESPRLLINYASQSISGIPSRFSGSGSGTDFTLTINSVETEDFGIYFCQQFNSWPLTFGGGTKLELKR
notes: also called chC1C1; chimeric C1C1

Key:
[1] = target: T1, full length human CD40 (uniprot # P25942-1) on the membrane of 293T-CD40 cells (human, UniProt P25942 21-277); assay: cell-based or functional assay
[2] = target: T1, full length human CD40 (uniprot # …); assay: flow cytometry on 293T-CD40 cells
Protocol: (§1) 2×10⁵ cells per well in 96 well-plates were incubated with the mouse anti-CD40 antibodies or the controls of various concentrations in FACS buffer for 40 minutes on ice. […] Following an incubation of 40 minutes at 4° C. in dark, cells were washed three times and resuspended in FACS buffer. Fluorescence was measured using a Becton Dickinson FACS Canto II-HTS equipment and plotted against antibody concentration.

[3] = target: T2, Human CD40-his protein (Acro biosystems, Cat # CD0-H5228) (human, UniProt P25942 21-193); assay: SPR, Biacore T200; antibody captured, antigen flowed; 1:1 Langmuir fit
T2 construct: Bought reagent; not shown: his tag
From the text: (§2) Briefly, goat anti-mouse IgG (GE healthcare, Cat # BR100838, Mouse Antibody Capture Kit) was covalently linked to a CM5 or a Protein G chip (carboxy methyl dextran coated chip) via primary amines, using a standard amine coupling kit provided by Biacore (GE healthcare, Pittsburgh, Pa., USA). Un-reacted moieties on the biosensor surface were blocked with ethanolamine. […] Then, human CD40-his (Acro biosystems, Cat # CD0-H5228) or cynomolgus monkey CD40-his protein (Acro biosystems, Cat # CD0-052H6) in HBS EP buffer (provided by Biacore) was flowed onto the chip at a flow rate of 30 μL/min. The antigen-antibody association kinetics was followed for 2 minutes and the dissociation kinetics was followed for 10 minutes. The association and dissociation curves were fit to a 1:1 Langmuir binding model using BIA evaluation software.

[4] = target: T3, cynomolgus monkey CD40-his protein (Acro biosystems, Cat # CD0-052H6) (cynomolgus monkey, UniProt G7PG38 21-193); assay: as above
T3 construct: Bought reagent; also called Cynomolgus CD40-his
From the text: as §2

[5] = target: T4, human CD40-Fc protein (amino acid residue 21-193 of SEQ ID NO: 67 linked to N-terminus of amino acid residue … (human, biotin-labeled in the capture ELISA and in the benchmark blocking ELISA; unlabeled when coated in the ligand blocking ELISA); assay: capture ELISA; antibody captured, biotin-labeled human CD40-Fc in solution
T4 construct: also called biotin-labeled human CD40-Fc; human CD40-Fc-biotin
Protocol: (§3) Plates were washed 4 times with wash buffer (PBS+0.05% Tween-20, PBST) and then blocked with 200 μl/well blocking buffer (5% w/v non-fatty milk in PBST) for 2 hours at 37° C. […] After a final wash, plates were incubated with 100 μl/well ELISA substrate TMB (Innoreagents, Cat # TMB-S-002). The reaction was stopped in 15 minutes at 25° C. with 50 μl/well 1M H₂SO₄, and the absorbance was read at 450 nm and plotted against antibody concentration. Data were analyzed using Graphpad Prism software and EC₅₀ values were reported.

[6] = target: T4, human CD40-Fc protein (amino acid …); assay: competitive ELISA; coated human CD40-Fc, competitor biotin human CD40L-his
Protocol: (§4) Briefly, human CD40-Fc proteins (amino acid residue 21-193 of SEQ ID NO: 67 linked to N-terminus of amino acid residue 99-330 of SEQ ID NO.: 24) were coated on 96-well micro plates at 2 μg/mL in coating buffer (PBS) and incubated overnight at 4° C. The next day, plates were washed with wash buffer (PBS+0.05% Tween-20, PBST), and blocked with 5% w/v non-fatty milk in PBST for 2 hours at 37° C. Plates were then washed again using wash buffer.
(§5) Serially diluted the mouse anti-CD40 antibodies of the present invention or the controls (starting at 200 nM with a four-fold serial dilution) in 2.5% w/v non-fatty milk in PBST were prepared to the plates and incubated with the human CD40-Fc proteins at room temperature for 40 minutes. […] Plates were washed again. 100 μl/well of streptavidin conjugated HRP was added and incubated for 40 minutes at 37° C. Plates were washed again using wash buffer. Finally, TMB was added and the reaction was stopped using 1M H₂SO₄, and the absorbance was read at 450 nm. Data were analyzed using Graphpad Prism software and IC₅₀ values were reported.

[7] = target: T1, full length human CD40 (uniprot # …); assay: flow cytometry on 293T-CD40 cells, PE-labeled secondary antibody, MFI
Protocol: as §1

[8] = target: T4, human CD40-Fc protein (amino acid …); assay: capture ELISA (antibody captured on coated anti-IgG F(ab')2, biotin-labeled human CD40-Fc in solution, streptavidin-HRP, OD(450-630))
Protocol: as §3

[9] = target: T4, human CD40-Fc protein (amino acid …); assay: as above; remark: listed apart in the source
Protocol: as §3

[10] = target: T4, human CD40-Fc protein (amino acid …); assay: ligand blocking ELISA: human CD40-Fc coated, antibody titrated, then biotin-labeled human CD40L-his (blocked ligand), streptavidin-HRP, OD(450-630)
Protocol: as §4, §5

[11] = target: T2, Human CD40-his protein (Acro …); assay: SPR, Biacore; antibody captured, human CD40-his flowed
From the text: as §2

Row | Binder | Cell-based Reporter assay (EC50, nM) [1] [nM] | EC50 [2] [nM] | Kd [3] [nM] | koff [3] [s⁻¹] | kon [3] [M⁻¹ s⁻¹] | Kd [4] [nM] | koff [4] [s⁻¹] | kon [4] [M⁻¹ s⁻¹] | EC50 [5] [nM] | IC50 [6] [nM] | EC50 (read off the curve) [7] [nM] | EC50 (read off the curve) [8] [nM] | EC50 (read off the curve) [9] [µg/mL] | IC50 (read off the curve) [10] [nM] | Kd [11] [nM] | koff [11] [s⁻¹] | kon [11] [M⁻¹ s⁻¹]
1 | B1 | 3.65 | 0.538 | 0.217 | 0.000542 | 2.49e+06 | 0.486 | 0.00119 | 2.45e+06 | 0.19 | 5.19 | ~0.5 | ~0.2 | ~0.02 | ~5 | – | – | –
2 | B2 | – | – | – | – | – | – | – | – | – | – | – | – | – | – | 7.09 | 0.00575 | 810000
